Consider two molecules from patent publication US20180071366A1.

Numbered stars: 1 amine (or outer) side, 2 acyl side, 3 side chain; on linkers, the order of the positions; unused ones are H or OH. Bridge positions count the residues as written; N and C are the ends. Square brackets hold non-standard residues; d marks the D form. * marks the point of attachment. C20 diacid = O=C(O)CCCCCCCCCCCCCCCCCCC(=O)*; γGlu = O=C(O)[C@H](CCC(=O)[*:2])N[*:1]; Hyp = O=C(O)[C@@H]1C[C@@H](O)CN1; NMeI = CC[C@H](C)[C@H](NC)C(=O)O; Aad = N[C@@H](CCCC(=O)O)C(=O)O; Orn = NCCC[C@H](N)C(=O)O; Sar = CNCC(=O)O

The target of assay [1] is recombinant human amylin 3 receptor (hAMYR3) (human), P30988. Description: cell-based or functional assay.
recombinant human amylin 3 receptor (hAMYR3) (human), P30988, sequence (P30988 25-474, chain 1 of 2): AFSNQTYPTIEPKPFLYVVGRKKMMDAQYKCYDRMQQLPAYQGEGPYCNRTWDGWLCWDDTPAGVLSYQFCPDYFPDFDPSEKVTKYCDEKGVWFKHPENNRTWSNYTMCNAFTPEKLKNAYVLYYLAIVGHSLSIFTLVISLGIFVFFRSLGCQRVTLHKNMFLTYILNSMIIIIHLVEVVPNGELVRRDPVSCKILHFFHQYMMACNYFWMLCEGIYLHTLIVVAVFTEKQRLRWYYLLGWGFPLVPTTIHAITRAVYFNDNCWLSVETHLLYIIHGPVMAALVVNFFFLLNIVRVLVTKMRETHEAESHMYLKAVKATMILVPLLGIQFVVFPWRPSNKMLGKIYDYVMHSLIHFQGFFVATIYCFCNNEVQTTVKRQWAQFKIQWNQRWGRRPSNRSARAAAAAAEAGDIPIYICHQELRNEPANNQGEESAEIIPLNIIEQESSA
recombinant human amylin 3 receptor (hAMYR3) (human), P30988, sequence (O60896 24-148, chain 2 of 2, further chain): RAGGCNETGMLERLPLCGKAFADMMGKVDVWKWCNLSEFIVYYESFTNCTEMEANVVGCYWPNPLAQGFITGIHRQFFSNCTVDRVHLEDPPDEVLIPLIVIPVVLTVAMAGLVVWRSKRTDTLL
For assay [2], the target named is recombinant human calcitonin receptor (hCT-R) (human), P30988. Kind of assay: cell-based or functional assay.
recombinant human calcitonin receptor (hCT-R) (human), P30988, sequence (P30988 25-474): as the sequence (P30988 25-474, chain 1 of 2) above

B1: Compound 23 (peptide)
peptide: {C20 diacid-γGlu}-RDGTAT[Orn]ATERLA[Aad]FLQRTTF[Sar]A[NMeI]LSSTEVGSNT[Hyp]-NH2
modifications: lactam 2-7
SMILES: CC[C@H](C)[C@@H](C(=O)N[C@@H](CC(C)C)C(=O)N[C@@H](CO)C(=O)N[C@@H](CO)C(=O)N[C@H](C(=O)N[C@@H](CCC(=O)O)C(=O)N[C@H](C(=O)NCC(=O)N[C@@H](CO)C(=O)N[C@@H](CC(N)=O)C(=O)N[C@H](C(=O)N1C[C@H](O)C[C@H]1C(N)=O)[C@@H](C)O)C(C)C)[C@@H](C)O)N(C)C(=O)[C@H](C)NC(=O)CN(C)C(=O)[C@H](Cc1ccccc1)NC(=O)[C@@H](NC(=O)[C@@H](NC(=O)[C@H](CCCNC(=N)N)NC(=O)[C@H](CCC(N)=O)NC(=O)[C@H](CC(C)C)NC(=O)[C@H](Cc1ccccc1)NC(=O)[C@H](CCCC(=O)O)NC(=O)[C@H](C)NC(=O)[C@H](CC(C)C)NC(=O)[C@H](CCCNC(=N)N)NC(=O)[C@H](CCC(=O)O)NC(=O)[C@@H](NC(=O)[C@H](C)NC(=O)[C@@H]1CCCNC(=O)C[C@H](NC(=O)[C@H](CCCNC(=N)N)NC(=O)CC[C@H](NC(=O)CCCCCCCCCCCCCCCCCCC(=O)O)C(=O)O)C(=O)NCC(=O)N[C@@H]([C@@H](C)O)C(=O)N[C@@H](C)C(=O)N[C@@H]([C@@H](C)O)C(=O)N1)[C@@H](C)O)[C@@H](C)O)[C@@H](C)O
For B1, the hAMYR3 EC50 [nM] (cAMP formation, 1321N1 cells expressing hAMYR3) in assay [1] is 0.706 nM. Moreover, the hCT-R EC50 [nM] (cAMP formation, 1321N1 cells expressing hCT-R) in assay [2] came out at 1.93 nM.

B2: Compound 24 (peptide)
peptide: {C20 diacid-γGlu}-RDGTAT[Orn]ATERLA[Aad]FLQRTTF[Sar]A[NMeI]PSSTEVGSNT[Hyp]-NH2
modifications: lactam 2-7
SMILES: CC[C@H](C)[C@@H](C(=O)N1CCC[C@H]1C(=O)N[C@@H](CO)C(=O)N[C@@H](CO)C(=O)N[C@H](C(=O)N[C@@H](CCC(=O)O)C(=O)N[C@H](C(=O)NCC(=O)N[C@@H](CO)C(=O)N[C@@H](CC(N)=O)C(=O)N[C@H](C(=O)N1C[C@H](O)C[C@H]1C(N)=O)[C@@H](C)O)C(C)C)[C@@H](C)O)N(C)C(=O)[C@H](C)NC(=O)CN(C)C(=O)[C@H](Cc1ccccc1)NC(=O)[C@@H](NC(=O)[C@@H](NC(=O)[C@H](CCCNC(=N)N)NC(=O)[C@H](CCC(N)=O)NC(=O)[C@H](CC(C)C)NC(=O)[C@H](Cc1ccccc1)NC(=O)[C@H](CCCC(=O)O)NC(=O)[C@H](C)NC(=O)[C@H](CC(C)C)NC(=O)[C@H](CCCNC(=N)N)NC(=O)[C@H](CCC(=O)O)NC(=O)[C@@H](NC(=O)[C@H](C)NC(=O)[C@@H]1CCCNC(=O)C[C@H](NC(=O)[C@H](CCCNC(=N)N)NC(=O)CC[C@H](NC(=O)CCCCCCCCCCCCCCCCCCC(=O)O)C(=O)O)C(=O)NCC(=O)N[C@@H]([C@@H](C)O)C(=O)N[C@@H](C)C(=O)N[C@@H]([C@@H](C)O)C(=O)N1)[C@@H](C)O)[C@@H](C)O)[C@@H](C)O
Consider B2, for which, in assay [1], the hAMYR3 EC50 [nM] (cAMP formation, 1321N1 cells expressing hAMYR3) was determined as 0.013 nM. Further, the hCT-R EC50 [nM] (cAMP formation, 1321N1 cells expressing hCT-R) in assay [2] was determined as 0.038 nM.
